Here are results for two molecules from paper PMC10470544, “Pathogen-specific structural features of Candida albicans Ras1 activation complex: uncovering new antifungal drug targets” (mBio, 2023).

In assay [1] the target is T1, catalytic region of CaCdc25 (REM-CAT tandem) (Candida albicans, UniProt P43069).
T1 construct: PDB 7NZZ holds this construct; also called REM-CAT tandem of CaCdc25; catalytic region of the CaRas1 guanine nucleotide exchange factor CaCdc25
T1 sequence: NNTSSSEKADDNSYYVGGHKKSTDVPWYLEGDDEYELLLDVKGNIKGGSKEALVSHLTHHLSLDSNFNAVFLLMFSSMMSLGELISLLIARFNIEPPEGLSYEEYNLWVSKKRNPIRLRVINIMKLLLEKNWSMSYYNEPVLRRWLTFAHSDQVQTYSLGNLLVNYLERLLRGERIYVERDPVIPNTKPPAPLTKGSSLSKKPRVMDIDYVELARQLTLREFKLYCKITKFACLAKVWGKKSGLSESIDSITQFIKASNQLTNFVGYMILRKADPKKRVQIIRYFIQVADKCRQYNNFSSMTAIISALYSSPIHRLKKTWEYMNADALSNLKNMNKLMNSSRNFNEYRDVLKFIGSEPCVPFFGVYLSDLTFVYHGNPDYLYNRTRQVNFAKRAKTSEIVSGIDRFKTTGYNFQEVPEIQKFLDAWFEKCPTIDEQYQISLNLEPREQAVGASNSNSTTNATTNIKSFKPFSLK
The assay can be described thus: ITC; recombinant CaCdc25 (REM-CAT tandem) titrated with CaRas1-FL or G-domain, MicroCal VP-ITC, single binding site model. Conditions: both partners purified. A general note: In ITC the heat of successive injections is recorded.

Assay [2] has as its target T1, catalytic region of CaCdc25 (REM-CAT …). Put plainly: SAXS; small angle X-ray scattering in solution, P12 beamline (EMBL, DESY), profiles extrapolated to infinite dilution; oligomeric state and stoichiometry deduced from the estimated masses (Table S1). The note with it: both partners purified.

What is called Kd is a measure of binding affinity in units of concentration. The term stoichiometry N denotes a count of units in the complex or per binding partner.

B1: isolated G-domain of CaRas1 (1–166) (domain or fragment)
chain: MLREYKLVVVGGGGVGKSALTIQLIQSHFVDEYDPTIEDSYRKQCTIDDQQVLLDVLDTAGQEEYSAMREQYMRTGEGFLLVYSINSLNSFQELNSFYDQILRVKDSDNVPVLVVGNKCDLEMERQVSYEDGLALANSFNCPFLETSAKQRINVEEAFYGLVRNIN
notes: Ras-like protein 1 (CaRas1), Candida albicans, GTPase domain (G-domain), residues 1-166; Monomeric in solution by SAXS; also called CaRas1 G-domain
Turning to B1, in assay [1], the Kd amounted to 9 µM. Further, the “stoichiometry N” value in assay [2] is 1.

B2: full-length Candida albicans Ras-like protein 1 (CaRas1-FL, 1–290) (natural protein)
chain: MLREYKLVVVGGGGVGKSALTIQLIQSHFVDEYDPTIEDSYRKQCTIDDQQVLLDVLDTAGQEEYSAMREQYMRTGEGFLLVYSINSLNSFQELNSFYDQILRVKDSDNVPVLVVGNKCDLEMERQVSYEDGLALANSFNCPFLETSAKQRINVEEAFYGLVRNINQYNAKIAEAEKQQQQQQQQQNANQQGQDQYGQQKDNQQSQFNNQINNNNNTSAVNGGVSSDGIIDQNGNGGVSSGQANLPNQSQSQSQRQQQQQQQEPQQQSENQFSGQKQSSSKSKNGCCVIV
notes: Ras-like protein 1 (CaRas1), Candida albicans, full-length protein, residues 1-290 (G-domain 1-166, hypervariable region 167-290); Monomeric in solution by SAXS; also called full-length CaRas1
In the case of B2, in assay [1], the Kd is 9 µM. For the same molecule, the “stoichiometry N” value in assay [2] was 1.
